Literature values as cited in publication PMC5418926.

Biological target: Lys53 (UniProt position 53, YGGQTKPIFRK)
Test: chemical modification (inferred: crosslinking with periodate-oxidised tRNA); not described in this article

| Substance | pKa (endogenous eL42 in situ in the human 80S ribosome, crosslinked with tRNAox) | pKa (recombinant eL42 off the ribosome) |
| --- | --- | --- |
| 60S ribosomal protein eL42 (L36a-like / RPL36AL), endogenous, in the human 80S ribosome (Homo sapiens) | 6.9 ± 0.1 | – |
| 60S ribosomal protein eL42 (formerly L36a / RPL36A), recombinant (Homo sapiens) | – | 6.9 + 0.1 |
